Positions of bridges follow the written chain, without caps; N, C: chain ends. No end group written: not given here.
Assays:
hK2 [1] = target: T1, hK2 (Homo sapiens, UniProt P20151); experiment: Effect of the peptides on the enzyme activity of hK2 (chromogenic substrate S-2302); type: biochemical; details: for inhibition (percent inhibition of hK2): enzymatic activity of hK2, chromogenic substrate, 405 nm; for inhibition of hK2 enzyme activity: 0.17 μM hK2, 100-fold molar excess of peptide; for effect on the enzyme activity of hK2: incubation of hK2 with synthetic peptide (FIG. 2)
T1 construct: made in house
T1 sequence (P20151 25-261): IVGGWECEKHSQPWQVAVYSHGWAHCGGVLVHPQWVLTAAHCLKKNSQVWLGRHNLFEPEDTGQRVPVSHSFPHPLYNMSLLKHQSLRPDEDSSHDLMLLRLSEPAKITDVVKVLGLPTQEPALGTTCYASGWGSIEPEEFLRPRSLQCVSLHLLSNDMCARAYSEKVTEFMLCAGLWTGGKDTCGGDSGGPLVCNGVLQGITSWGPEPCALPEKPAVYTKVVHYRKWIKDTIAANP
Procedure: “Inhibition”, as used in the present context, stands for an inhibitory action on the proteolytic activity of hK2.
(§1) The effect of the peptides on the enzyme activity of hK2 was studied by using the chromogenic substrate S-2302 (H-D-Pro-Phe-Arg-pNA). HK2 (0.17 μM) was incubated with a 100-1000-fold molar excess of synthetic peptides in 20 mM Tris-buffer pH 8.0 containing 0.1% BSA for 30 minutes at room temperature. After addition of the substrate to a final concentration of 0.2 mM the absorbance was monitored at 405 nm at 5-10 min intervals for 1 h on a Victor 1420 Multilabel fluorometer (PerkinElmer-Wallac, Turku, Finland)

human trypsin 1 = target: T2, human trypsin 1 (Homo sapiens, UniProt P07477); experiment: Specificity: effect on enzyme activity of human trypsin 1 (substrate S-2222); type: biochemical
T2 construct: made in house
Procedure: as §1
(§2) The specificity of the peptides was analyzed by studying their effect on the activity of other serine proteases including α-chylotrypsin, bovine trypsin, human trypsin 1, trypsin 2 and trypsin 3, urokinase, thrombin, plasmin, plasma kallikrein and PSA. The assay was as described above for hK2 except that the substrate for PSA and α-chymotrypsin was S-2586 (MeO-Suc-Arg-Pro-Tyr-pNA)(Chromogenix), S-2444 for urokinase, S-2238 for thrombin, S-2403 for plasmin, S-2302 for plasma kallikrein and that for various forms of trypsin was S-2222 (CO-Ile-Glu-(OR)-Gly-Arg-pNA)(Chromogenix).

plasmin = target: T3, plasmin (Homo sapiens, UniProt P00747); experiment: Specificity: effect on enzyme activity of plasmin (substrate S-2403); type: biochemical
T3 construct: Human plasmin, thrombin and plasma kallikrein were from Sigma; purchased Sigma
T3 sequence (P00747 97-580 partner limits assumed): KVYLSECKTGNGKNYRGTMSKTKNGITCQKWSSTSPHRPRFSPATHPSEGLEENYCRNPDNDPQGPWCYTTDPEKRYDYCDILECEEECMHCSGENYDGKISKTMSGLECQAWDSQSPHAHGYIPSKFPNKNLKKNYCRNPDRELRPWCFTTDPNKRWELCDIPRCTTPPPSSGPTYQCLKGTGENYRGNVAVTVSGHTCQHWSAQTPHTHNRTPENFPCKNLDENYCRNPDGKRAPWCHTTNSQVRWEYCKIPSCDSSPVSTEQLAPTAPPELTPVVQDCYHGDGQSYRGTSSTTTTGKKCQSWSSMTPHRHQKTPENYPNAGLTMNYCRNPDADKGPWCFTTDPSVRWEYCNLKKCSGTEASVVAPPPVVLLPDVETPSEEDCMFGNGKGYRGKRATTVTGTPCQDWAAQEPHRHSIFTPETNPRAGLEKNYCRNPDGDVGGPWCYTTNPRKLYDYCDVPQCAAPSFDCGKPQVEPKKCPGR
T3 sequence (P00747 581-810 limits assumed): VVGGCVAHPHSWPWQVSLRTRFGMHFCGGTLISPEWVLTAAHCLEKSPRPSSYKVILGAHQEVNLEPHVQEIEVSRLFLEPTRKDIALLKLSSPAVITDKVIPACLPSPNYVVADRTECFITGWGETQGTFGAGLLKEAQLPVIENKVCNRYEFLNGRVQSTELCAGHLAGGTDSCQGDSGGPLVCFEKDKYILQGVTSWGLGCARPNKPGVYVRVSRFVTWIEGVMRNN
Procedure: as §1, §2

bovine trypsin = target: T4, bovine trypsin (Bos taurus, UniProt P00760); experiment: Specificity: effect on enzyme activity of bovine trypsin (substrate S-2222); type: biochemical
T4 construct: purchased Athens Research and Technology, Athens, Ga., USA
T4 sequence (P00760 24-246): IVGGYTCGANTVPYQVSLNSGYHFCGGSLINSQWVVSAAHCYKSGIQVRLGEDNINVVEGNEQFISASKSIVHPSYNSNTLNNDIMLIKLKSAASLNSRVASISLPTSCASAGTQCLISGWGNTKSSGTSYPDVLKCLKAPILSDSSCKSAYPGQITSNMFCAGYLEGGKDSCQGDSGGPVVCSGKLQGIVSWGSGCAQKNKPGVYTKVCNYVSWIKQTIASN
Procedure: as §1, §2

thrombin = target: T5, thrombin (Homo sapiens, UniProt P00734); experiment: Specificity: effect on enzyme activity of thrombin (substrate S-2238); type: biochemical
T5 construct: Human plasmin, thrombin and plasma kallikrein were from Sigma; purchased Sigma
Procedure: as §1, §2

hK2 [2] = target: T1, hK2; experiment: Cross-inhibition test: inhibition of phage binding to captured hK2 by synthetic peptides (IFMA); details: synthetic peptide 5 μM, FIG. 1
Procedure: The phage IFMA was performed essentially as described (Wu, Leinonen et al. 2000). In this assay, 50 ng of hK2 in 200 μL of assay buffer was captured onto wells coated with MAb 5E4. After washing, 2.5 μL of phage (10^8-10^9 infectious particles) and 200 μL assay buffer were added to wells. After incubation for 1 h, the wells were washed and filled with 200 μL of assay buffer containing 100 ng Eu-labeled anti-phage polyclonal antibody recognizing the M13 coat protein of the phage. After incubation for 60 min, the wells were washed 4 times, and enhancement solution (Perkin Elmer-Wallac) was added. The fluorescence was quantified with a Victor fluorometer in time resolved mode (Perkin Elmer-Wallac).
The relative binding sites of the peptides on hK2 were mapped by competition experiments with chemically synthesized and phage peptides. The protocol was based on the IFMA method described above except that phages and the synthetic peptides were reacted together with hK2. Briefly, each of the synthetic peptides at 5 μM concentration was added into the wells in which hK2 had been captured by MAb 5E4. After incubation for 30 min each phage was added. After 1 h incubation, the wells were washed and the assay was as described above for IFMA.

urokinase = urokinase (Homo sapiens, UniProt P00749); experiment: Specificity: effect on enzyme activity of urokinase (substrate S-2444); type: biochemical
Procedure: as §1, §2

α-chymotrypsin = experiment: Specificity: effect on enzyme activity of α-chymotrypsin (substrate S-2586); type: biochemical
Procedure: as §1, §2

trypsin 2 = target: T6, trypsin 2 (Homo sapiens, UniProt P07478); experiment: Specificity: effect on enzyme activity of human trypsin 2 (substrate S-2222); type: biochemical
T6 construct: made in house
T6 sequence (P07478 24-247): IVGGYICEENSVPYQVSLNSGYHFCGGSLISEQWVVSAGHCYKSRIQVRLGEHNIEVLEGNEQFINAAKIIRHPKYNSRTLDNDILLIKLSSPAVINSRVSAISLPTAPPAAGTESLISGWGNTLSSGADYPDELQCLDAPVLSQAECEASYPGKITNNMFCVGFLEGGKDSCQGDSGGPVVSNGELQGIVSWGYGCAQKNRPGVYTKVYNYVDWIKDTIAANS
Procedure: as §1, §2

plasma kallikrein = target: T7, plasma kallikrein (Homo sapiens, UniProt P03952); experiment: Specificity: effect on enzyme activity of plasma kallikrein (substrate S-2302); type: biochemical
T7 construct: Human plasmin, thrombin and plasma kallikrein were from Sigma; purchased Sigma
T7 sequence (P03952 20-390 partner limits assumed): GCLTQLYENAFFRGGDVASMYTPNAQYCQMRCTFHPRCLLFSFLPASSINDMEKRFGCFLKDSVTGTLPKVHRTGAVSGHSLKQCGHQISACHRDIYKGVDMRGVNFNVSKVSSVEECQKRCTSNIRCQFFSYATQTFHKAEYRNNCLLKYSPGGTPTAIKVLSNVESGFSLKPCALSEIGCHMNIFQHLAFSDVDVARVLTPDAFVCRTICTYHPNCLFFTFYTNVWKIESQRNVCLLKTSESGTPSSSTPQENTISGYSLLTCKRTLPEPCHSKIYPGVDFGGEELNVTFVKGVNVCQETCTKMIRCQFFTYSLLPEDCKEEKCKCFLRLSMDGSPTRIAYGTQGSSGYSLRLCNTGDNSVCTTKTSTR
T7 sequence (P03952 391-638 limits assumed): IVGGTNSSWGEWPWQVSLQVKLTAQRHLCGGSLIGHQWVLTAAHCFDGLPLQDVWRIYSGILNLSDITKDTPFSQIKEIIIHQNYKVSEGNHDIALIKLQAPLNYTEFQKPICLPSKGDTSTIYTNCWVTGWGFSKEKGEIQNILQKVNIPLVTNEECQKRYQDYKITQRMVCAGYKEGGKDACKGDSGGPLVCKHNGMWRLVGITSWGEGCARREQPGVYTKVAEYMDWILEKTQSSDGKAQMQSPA
Procedure: as §1, §2

trypsin 3 = target: T8, trypsin 3 (Homo sapiens, UniProt P35030); experiment: Specificity: effect on enzyme activity of human trypsin 3 (substrate S-2222); type: biochemical
T8 construct: made in house
T8 sequence (P35030 1-304): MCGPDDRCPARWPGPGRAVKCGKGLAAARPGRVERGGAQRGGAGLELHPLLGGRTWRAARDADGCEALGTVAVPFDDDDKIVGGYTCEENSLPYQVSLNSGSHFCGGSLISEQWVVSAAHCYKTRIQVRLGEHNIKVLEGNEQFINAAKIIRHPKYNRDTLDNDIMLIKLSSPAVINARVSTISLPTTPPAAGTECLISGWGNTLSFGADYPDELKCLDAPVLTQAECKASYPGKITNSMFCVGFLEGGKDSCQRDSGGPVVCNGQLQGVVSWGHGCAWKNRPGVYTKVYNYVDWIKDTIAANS
Procedure: as §1, §2

PSA = target: T9, PSA (Homo sapiens, UniProt P07288); experiment: Specificity: effect on enzyme activity of PSA (substrate S-2586); type: biochemical
T9 construct: PSA was purified from human seminal plasma as described (Zhang et al. 1995); from tissue; host or cells: human seminal plasma
T9 sequence (P07288 25-261): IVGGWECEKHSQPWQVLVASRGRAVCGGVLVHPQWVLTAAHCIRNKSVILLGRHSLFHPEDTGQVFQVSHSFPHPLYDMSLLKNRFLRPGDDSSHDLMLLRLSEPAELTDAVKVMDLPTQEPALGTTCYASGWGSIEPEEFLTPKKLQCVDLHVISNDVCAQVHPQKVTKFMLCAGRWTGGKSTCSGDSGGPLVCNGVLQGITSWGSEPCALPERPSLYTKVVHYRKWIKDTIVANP
Procedure: as §1, §2

hK2 [3] = target: T1, hK2; experiment: Effect of the peptides on the enzyme activity of hK2 (chromogenic substrate S-2302); type: biochemical; details: S-2302 200 μM, 0.17 μM hK2, 0-400 μM peptide; read-out: IC50 for hK2 inhibition

15 (GPARRPFPVTAG) [compound 15]
inhibition (percent inhibition of hK2) (hK2 [1]): 49%

31 (GPARRPFPVTAG) [compound 31]
inhibition (percent inhibition of hK2) (hK2 [1]): 58%

55 (SRFKVWWAAG) [compound 55]
inhibition (percent inhibition of hK2) (hK2 [1]): 79%

57 (SRFKVWWAAG) [compound 57]
inhibition (percent inhibition of hK2) (hK2 [1]): 27%

63 (SRFKVWWAAG) [compound 63]
inhibition (percent inhibition of hK2) (hK2 [1]): 78%

64 (SRFKVWWAAG) [compound 64]
inhibition (percent inhibition of hK2) (hK2 [1]): 85%

69 (SRFKVWWG) [compound 69]
inhibition (percent inhibition of hK2) (hK2 [1]): 79%

73 (SRFKVWWG) [compound 73]
inhibition (percent inhibition of hK2) (hK2 [1]): 82%

AARRPFPAPS [HK2p02]
inhibition of hK2 enzyme activity (hK2 [1]): slight inhibition
effect on the enzyme activity of hK2 (hK2 [1]): significant reduction
effect on activity of human trypsin 1 (human trypsin 1): no inhibition
effect on activity of plasmin (plasmin): no inhibition
effect on activity of bovine trypsin (bovine trypsin): no inhibition
effect on activity of thrombin (thrombin): no inhibition
inhibition of the binding of the phage carrying the corresponding peptide (hK2 [2]): inhibited efficiently
effect on activity of urokinase (urokinase): no inhibition
effect on activity of α-chymotrypsin (α-chymotrypsin): no inhibition
effect on activity of human trypsin 2 (trypsin 2): no inhibition
effect on activity of plasma kallikrein (plasma kallikrein): no inhibition
effect on activity of human trypsin 3 (trypsin 3): no inhibition
effect on activity of PSA (PSA): no inhibition

ARFKVWWAAG [SEQ ID NO 56, A, R ,F, K, V, W, W, A, A, G]
type of inhibition of hK2 (hK2 [1]; Lineweaver-Burke Plot): competitive inhibitor
IC50 (hK2 [3]): 2.2 µM

C3AARRPAPAPCG (CAARRPAPAPCG; disulfide 1-11 (inferred)) [BTK144-18c]
effect of cyclic peptides on hK2 protease activity (hK2 [1]; FIG. 3): slight inhibitory effect

CFRQGCWVIT [HK2p04]
effect on the enzyme activity of hK2 (hK2 [1]): did not show any effect

CYRMPTCMQRD [HK2p06]
effect on the enzyme activity of hK2 (hK2 [1]): did not show any effect
inhibition of the binding of the phage carrying the corresponding peptide (hK2 [2]): inhibited efficiently

FRTCLRSWACM [HK2p05]
inhibition of the binding of the phage carrying the corresponding peptide (hK2 [2]): not inhibited

PARRPFPVTA [HK2p03]
inhibition of hK2 enzyme activity (hK2 [1]): slight inhibition
effect on the enzyme activity of hK2 (hK2 [1]): significant reduction
effect on activity of human trypsin 1 (human trypsin 1): no inhibition
effect on activity of plasmin (plasmin): no inhibition
effect on activity of bovine trypsin (bovine trypsin): no inhibition
effect on activity of thrombin (thrombin): no inhibition
inhibition of the binding of the phage carrying the corresponding peptide (hK2 [2]): inhibited efficiently
effect on activity of urokinase (urokinase): no inhibition
effect on activity of α-chymotrypsin (α-chymotrypsin): no inhibition
effect on activity of human trypsin 2 (trypsin 2): no inhibition
effect on activity of plasma kallikrein (plasma kallikrein): no inhibition
effect on activity of human trypsin 3 (trypsin 3): no inhibition
effect on activity of PSA (PSA): no inhibition

SRFKVWWAAG-OH [HK2p01, SRFKVWWAAG]
inhibition of hK2 enzyme activity (hK2 [1]): slight inhibition
effect on the enzyme activity of hK2 (hK2 [1]): significant reduction
effect on activity of human trypsin 1 (human trypsin 1): no inhibition
effect on activity of plasmin (plasmin): no inhibition
effect on activity of bovine trypsin (bovine trypsin): no inhibition
effect on activity of thrombin (thrombin): no inhibition
inhibition of the binding of the phage carrying the corresponding peptide (hK2 [2]): inhibited efficiently
effect on activity of urokinase (urokinase): no inhibition
effect on activity of α-chymotrypsin (α-chymotrypsin): no inhibition
effect on activity of human trypsin 2 (trypsin 2): no inhibition
effect on activity of plasma kallikrein (plasma kallikrein): no inhibition
effect on activity of human trypsin 3 (trypsin 3): no inhibition
effect on activity of PSA (PSA): no inhibition

Source: patent US20090214427A1, “Novel peptides” (Licentia OY, priority 2004, published 2009)
